# Assay: yeast display, Sf9 membrane polyspecificity reagent, FACS + sequencing; frameworks hold sequencing errors
# Summary of the method: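 Nanobodies came from a synthetic yeast display library in Saccharomyces cerevisiae BJ5465, induced with galactose for 36–48 hours and stained for 1 hour at 4 °C with 10% biotinylated, detergent-solubilized Sf9 membrane reagent. Cells were enriched on streptavidin microbeads and then FACS-sorted, with low and high (top ~1%) gates set on anti-HA fluorescence for expression and streptavidin fluorescence for reagent binding. Each polyreactivity label reflects the gate a clone came from. Genes were amplified by colony PCR, sequenced by MiSeq 2 × 250 and filtered by CDR length.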
row,Sequence,polyreactivity (PSR sort gate)
1,QVQLVESGGGLVQAGGSLRLSCAASGRIFYPYVMGWYRQAPGKERELVAAITGGGSTYYADSVKGRFTISRDNAKNTVYLQMNSLKPEDTAVYYCAKRSYGDRDERYDSWGQGTQVTVSS,low polyreactivity
2,QVQLVESGGGLVQAGGSLRLSCAASGRIFYQNVMGWYRQAPGKERELVAAITTSGGRTYYADSVKGRFTISRDNAKNTVYLQMNSLKPEDTAVYYCAAKASNRGYYYWGQGTQVTVSS,high polyreactivity
3,QVQLVESGGGLVQAGGSLRLSCAASGRIFYQYAMGWYRQAPGKERELVAAIRYRDDGTYYADSVKGRFTISRDNAKNTVYLQMNSLKPEDTAVYYCAAKQWGRYGFWGQGTQVTVSS,high polyreactivity
4,QVQLVESGGGLVQAGGSLRLSCAASGRIFYRNAMGWYRQAPGKERELVAAIRGGDNTYYADSVKGRFTISRDNAKNTVYLQMNSLKPEDTAVYYCAARSYRLDSYYWGQGTQVTVSS,high polyreactivity
5,QVQLVESGGGLVQAGGSLRLSCAASGRIFYRNAMGWYRQAPGKERELVAAISRRGGSTSYADSVKGRFTISRDNANNTVYLQMNSLKPEDTAVYYCAASRFRTGQEDDYWGQGTQVTVSS,high polyreactivity
6,QVQLVESGGGLVQAGGSLRLSCAASGRIFYRYAMGGYRQAPGKERELVASITTSGDSTYYADSVKGRFTISRDNAKNTVYLQMNSLKPEDTGVYYCAASSYRGRRYDYWGQGTQVTVSS,high polyreactivity
7,QVQLVESGGGLVQAGGSLRLSCAASGRIFYRYAMGWYRPAPGKERELVATITGRGGSTYYADSVKGRFTISRDNAKNTVYLQMNSLKPEDTAVYYCATTRSVSYPYDGSYYWGQGTQVTVSS,high polyreactivity
8,QVQLVESGGGLVQAGGSLRLSCAASGRIFYRYAMGWYRQAPGKEREFVAAISGTGGSTYYADSVKGRFTISRDNAKNTVYLQMNSLKPEDTAVDYCAASVVSRPTYYAYYYWGQGTQVTVSS,high polyreactivity
9,QVQLVESGGGLVQAGGSLRLSCAASGRIFYRYAMGWYRQAPGKERELVAAINDGGSTYYADSVKGRFTISRDNAKNTVYLQMNSLKAEDTAVYYCNVVNEHQSDFVVPFDYNHWGQGTQVTVSS,low polyreactivity
10,QVQLVESGGGLVQAGGSLRLSCAASGRIFYRYAMGWYRQAPGKERELVAAIRYSGGRTYYADSVKGRFTISRDNAKNTVYLQMNSLKPEDTAVYYCAADGQWYYAPFRGGDYENDYWGQGTQVTVSS,low polyreactivity
11,QVQLVESGGGLVQAGGSLRLSCAASGRIFYRYAMGWYRQAPGKERELVAAITGSVGSTYYADSVKGRFTISRDNAKNTVYLQMNSLKPEDTAVYYCAREYHGDSRRYDYWGQGTQVTVSS,high polyreactivity
12,QVQLVESGGGLVQAGGSLRLSCAASGRIFYRYAMGWYRQAPGKERELVAAITYSGSSTYYADSVKGRFTISRDNAKNTVYLQMNSLKPEDTAVYYCAARFQSTNGHKYYYWGQGTQVTVSS,high polyreactivity
13,QVQLVESGGGLVQAGGSLRLSCAASGRIFYRYVMGWYREAPGKERELVAAIRNSGGSTYYADSVKGRFTISRDNAKNTVYLQMNSLKPEDTAVYYCAKRYGTSFYVGSAKIGYDYWGQGTQVTVSS,high polyreactivity
14,QVQLVESGGGLVQAGGSLRLSCAASGRIFYSNTMGWYRQAPGKERELVAAISRSGGRTYYADSVKGRFTISRDNAKHTVYLQMNSLKPEDTAVYYCNTAYYRNPYYKGYYWGQGTQVTVSS,high polyreactivity
15,QVQLVESGGGLVQAGGSLRLSCAASGRIFYSYAMGGYRQAPGQERELVAAIDESDGSTYYADSVKGRFTISRDNATNTVYLQLNSLKPDDTAVYYSAADSLLVLFDYWGQGTQVTVSS,low polyreactivity
16,QVQLVESGGGLVQAGGSLRLSCAASGRIFYSYAMGWSRQAPGKERELVAAISFSVGSTYYADSVKGRFTISRDNAKNSVYLQMNSLKPEDTAVYYCAASLGFPGYEYWGQGTQVTVSS,low polyreactivity
17,QVQLVESGGGLVQAGGSLRLSCAASGRIFYSYAMGWYRQAPGKERELVAAITRGGSTSYADSVKGRFTISRDNAKNTVYLQMNSLKPEDTAVYYCATRQFYSYWKYYYWGQGTQVTVSS,high polyreactivity
18,QVQLVESGGGLVQAGGSLRLSCAASGRIFYSYAMGWYRQAPGKERELVATISRRGGSTYYADSVKGRFTISRDNAKITVYLQMNSLKPEDTAVYYCNKGIPTRSVRSYDYWGQGTQVTVSS,high polyreactivity
19,QVQLVESGGGLVQAGGSLRLSCAASGRIFYSYAMGWYRQAPGKESELVAAIRSTGSTNYADSVKGRFTISRDNAKNTVYLQMNSLKPEDTAVYYCAARTSYRSSLFGYWGQGTQVTVSS,high polyreactivity
20,QVQLVESGGGLVQAGGSLRLSCAASGRIFYSYTMGWYRQAPGKERELVAGINRSVGSTYYADSVKGRFTISRDNAKNTVYLQMNSLKPEDTAVYYCAAGSRRRSYYTFSSVHGHYYWGQGTQVTVSS,high polyreactivity
21,QVQLVESGGGLVQAGGSLRLSCAASGRIFYSYVMGWYRQAPGKDRELVGAITRSGGTTYYADSVMGRFTISRDNANNPVYLQMNSLKPEDTAVYYCATRSIFNGYGYYHPYNFWGQGTQVTVSS,high polyreactivity
22,QVQLVESGGGLVQAGGSLRLSCAASGRIFYTNAMGWSRQAPGKERELVAVISWGGDTTYYADSVKGRFTISRDNAKNTVYLQMNSLKPEDTAVYYCNADWGPTYEIYDSWGQGTQVTVSS,low polyreactivity

row,Sequence,polyreactivity (PSR sort gate)
1,QVQLVESGGGLVQAGGSLRLSCAASGRIFYTNAMGWYRQAPGKERELVAAIDYSDSTTYYADSVKGRFTISRDNAKNTVYLQMNSLKPEDTAVYYCAAESYLYTVTFEYWGQGTQVTVSS,high polyreactivity
2,QVQLVESGGGLVQAGGSLRLSCAASGRIFYTNAMGWYRQAPGKERELVAVISWGGDTTYYADSVKGRFTISRDNAKNTVYLQMNSLKPEDTAVYYCKADWGPTYEIYDSWGQGTQVTVSS,low polyreactivity
3,QVQLVESGGGLVQAGGSLRLSCAASGRIFYTYAMGWYRPAPGKERELVAAITYRGGSTYYADSVKGRFTISRDNAKNTVYLQMNSLKPEDTAVYYCAGRPGRGPDSRWRYKYDYWGQGTQVTVSS,high polyreactivity
4,QVQLVESGGGLVQAGGSLRLSCAASGRIFYTYAMGWYRQAPGKERELVAAIRWRGGSTHYADSVKGRFTISRDNAKNTVYLQMNSLKPEDTAVYYCARDGGWYIDGRAYTGDYWGQGTQVTVSS,high polyreactivity
5,QVQLVESGGGLVQAGGSLRLSCAASGRIFYTYAMGWYRQAPGKERELVATISGRGGSTYYADSVKGRFTISRDNAKNTVYLLMNSLKPEDTAVYYCAAVSYTQSHAYWGTGYRYGYWGQGTQVTVSS,high polyreactivity
6,QVQLVESGGGLVQAGGSLRLSCAASGRIFYVNAMGWYRQAPGKERELVATINYTDGSTYYADSVKGRFTISRDKAKNTVYLQMNSMKPEDTAVYYCAADAVWYDFVAYWTTYYYWGPGTQVTVSS,low polyreactivity
7,QVQLVESGGGLVQAGGSLRLSCAASGRIFYVYAMGWYRQAPGKEREFVAAITRRSGSTYYADSVKGRFTISRDKAKNTVYLQMNSLKPEDTAVYYCNARLKYAFPQVPPYDYWGQGTQVTVSS,high polyreactivity
8,QVQLVESGGGLVQAGGSLRLSCAASGRIFYVYGMGWYRQAPGKERELVGAISKRGDNTYYADSVKGRFTISRDNAKNTVYLQMNSLNPEDTAVYYCNVKRYGGRSDYWGQGTQVTVSS,high polyreactivity
9,QVQLVESGGGLVQAGGSLRLSCAASGRIFYWNAMGWYRQAPGKERELVAVITKSGGSTYYADSVKGRFTISRDNAKNTVYLQMNSLKPEDTAVYYCAKSLYVQGYYIYDWGQGTQVTVSS,high polyreactivity
10,QVQLVESGGGLVQAGGSLRLSCAASGRIFYWYAMGWYRQAPGKERELVAAISGSDGSTYYADSVKGRFTISRDNAKNTVYLQMNSLKPEDTAVYYCADEGSYPRMDYWGQGTQVTVSS,low polyreactivity
11,QVQLVESGGGLVQAGGSLRLSCAASGRIFYYNAMGWSRQAPGKEWELVAAITYSGTSTYYAASVKGRFTISRDNAKYTVYLQMNSLKPEDTAVDYCNAEGDNRRDRYDYWGQGTQVTVSS,low polyreactivity
12,QVQLVESGGGLVQAGGSLRLSCAASGRIFYYNAMGWYRQAPGKEREFVAAITYRGGSTYYADSVKGRFTISRDNAKNTVYLQMNSLKPEDTAVYYCAARSAWQVAPRGRTVAFDYWGQGTQLTVSS,high polyreactivity
13,QVQLVESGGGLVQAGGSLRLSCAASGRIFYYNAMGWYRQAPGKERELVAAITRSGSTNYADSVKGRFTISRDNSKNSVYLQMNSLKPEDTAVYYCAAPWRGSVFRYYSWGQGTQVTVSS,low polyreactivity
14,QVQLVESGGGLVQAGGSLRLSCAASGRIFYYNAMGWYRQAPGKERELVAAITYIGGNTHYADSVKGRFTISRDNAKNTVYFQMNSLKPEDTAVYYCARGTVLGFYYEYGYWGQGTQVTVSS,low polyreactivity
15,QVQLVESGGGLVQAGGSLRLSCAASGRIFYYNTMGWYRQAPGKERELVAAISYRGGSTYYADSVKGRFTISRDNAKNTVYLQMNSLKTEDTAVYYCAAPVRQSSYTRYDSWGQGTQVTVSS,high polyreactivity
16,QVQLVESGGGLVQAGGSLRLSCAASGRIFYYNTMGWYRQAPGKERELVAAITTNGGSTYYADSVKGRFTISRDNAKNTVYLQMNSPKPEDTAVYYCNRDRYPYYYAYNYWGQGTQVTVSS,low polyreactivity
17,QVQLVESGGGLVQAGGSLRLSCAASGRIFYYYAMGRYRQAPGKERELVAAISWSGGSTYYADSVKGRFTISRDNAKNTVYLQMNSLKPEDTAVYYCAAESRKYREYYYWGQGTQVTVSS,high polyreactivity
18,QVQLVESGGGLVQAGGSLRLSCAASGRIFYYYAMGWYRQAPGKERELVAAISSRGASTYYADSVKGRFTISRDNAKNTVYLQMNSLKPEDTAVYYCAASTPFRSTRYDYWGQGTQVTVSS,high polyreactivity
19,QVQLVESGGGLVQAGGSLRLSCAASGRIFYYYAMGWYRQAPGKERELVAAISSSGGSTYYADSVKGRYTISRDNAKNTVYLQMNSLKPEDTAVYYCNARTRYDMGYWGQGTQVTVSS,high polyreactivity
20,QVQLVESGGGLVQAGGSLRLSCAASGRIFYYYAMGWYRQAPGKERELVAAISWRGTSTYYADSVKGRFTISRDNAKNTVYLQMNSLKPEDTAVYYCAARYTKGMYYWGQGTQVSVSS,high polyreactivity
21,QVQLVESGGGLVQAGGSLRLSCAASGRIFYYYAMGWYRQAPGKERELVAAISWRGVSTYYADSVKGRFTISRDNAKNTVYLQMNSLKPEDTAVYYCAASQYRSPYPYRDYYTPDYDYWGQGTQVTVSS,high polyreactivity

# Reference: the nanobody polyreactivity screen of Harvey et al. (2022)
